In the RNAGym collection of RNA variant scans (doi:10.1073/pnas.2313332121):

B1: TPR t1 (parent)
chain: GACCAAUCUGCCCUCAGAGCUCGAGAACAUCUUCGGAUGCAGAGGAGGCAGGCUUCGGUGGCGCGAUAGCGCCAACGUCCUCAACCUCCAAUGCAUCCCACCACAUGAUGAUGCCUGAAGAGCCUUGGUUUUUUG

Variants of: B1
Assay: polymerase ribozyme fitness, log enrichment relative to wild type (log ratio); higher = more active; in vitro selection for triplet polymerase activity
How it was run: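 In triplicate, a single round of in vitro selection was run on each mutant library, PCR-built and transcribed, covering one subunit of a heterodimeric triplet polymerase ribozyme. Frozen incubation at −7 °C followed annealing with a biotinylated primer, partner subunit and triplets, and extended constructs were then gel-excised, streptavidin-captured and taken through RT-PCR. Fitness is the logarithm of genotype enrichment over wild-type enrichment, from inverse-variance-weighted replicate averages of Illumina-sequenced inputs and outputs. […] only genotypes with ≥10 input reads and ≥1 read per output were kept.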

Variant | polymerase ribozyme fitness (log ratio)
C11U C56G | -1.1
C11U C56A | -0.322
C12A A43G C62U C124G G127U | -0.505
C11U G17A | -3
C12A A43G C70A U81A G120U | -5.53
C12A A37C G71A A108G U112G | -7.07
C12A A50U A74C A84G U112A | -4.85
C11U C79G G93U | -3.61
C11U C53A G69U G93C C94U | -0.279
C11U G93C U112A G127C U134A | -0.699
C11U G44C A46U | -2.61
C11U G47A G48A | -2.36
C11U G110C | -2.8
C11U G110A | -1.63
C11U G110U | -1.5
C11U G60A U78C A95U U112A U116G | -3.18
C11U U133G | -0.78
C12A A16U A50U A74U | -5.14
C11U G65U C82U C104A U112A | -6.27
C12A A37U U78C C82U A108G | -3.38
C11U G19U U54A A121C G135U | -2.38
C12A A41G | -0.758
C11U G61U | -0.841
C11U G61C | -1.64

Variant | polymerase ribozyme fitness (log ratio)
C11U U78C C94U | -1.61
C12A A41C U92G A111G | -2.42
C11U C79U U81C C94A G120U | -4.75
C11U G107A | -6.13
C11U C72U | -0.485
C11U C115A | -0.908
C11U G63U A84U C89U | -2.9
C11U U112G | -0.177
C11U C56U A95G | -0.936
C12A A43U C56A | -2.54
C11U C53G C56U U87C G117U G120A G122A | -3.01
C11U G51C C85U | -4.53
C12A A27G G71U G93A | -6.11
C11U U55C G61A A121G | 1.39
C11U G45C U81G | -4.91
C11U U78A U87A C99U C115A | -4.73
C11U G39U A43G | -3.16
C11U G93C G122A | -0.0927
C11U G52A C94G C104A A121G | -2
C11U G47C G71U U92G G113C | -5.32
C11U G77A | -1.92
C12A A26U G44C C102U C123G | -7.51
C11U U87A | 0.703
C11U G122A G128C U131C | -0.489

Variant | polymerase ribozyme fitness (log ratio)
C11U G61C G120U G122U | -1.06
C11U G61A A105G U106A | -0.0724
C11U G45C C88A | -0.484
C11U G23A G61A G113U | -6.08
C11U C104U | -1.3
C12A A41U A90C | -1.95
C11U G42U C101A | -3.62
C11U G42C C64U C94U | -1.83
C11U G36A C101U | -4.98
C11U G63C | -1.64
C12A A27C C40G G63C G120A | -2.65
C12A A16C | -2.4
C11U G69A A84C | -2.03
C12A A16C A29U G47A G61A | -3.43
C11U G19U C20A C104U G120U | -4.29
C11U U32A G93A A100U A105G | -4.99
C11U G60A U106C G128C | -3.82
C11U U33G A121C | -4.56
C11U G57A G58U G63U G77U C82G U106A | -3.25
C12A A43U | -2.89
C12A A43C C53U | -2.86
C11U G35U A111U G122C | -6.28
C11U G45A G48A A74U | -2.5
C11U U32C C97G | -4.82

Variant | polymerase ribozyme fitness (log ratio)
C11U G35A A37U C124A U132A | -4.07
C11U G135A | -1.27
C11U G135U | -1.81
C11U C123A | 0.93
C11U C123G | 1.73
C11U G120A U129G | -1.66
C12A A18G C82A C101A U130G | -7.19
C12A A16G G36U | -4.37
C11U G39C U59C U81A A84G | -3.33
C11U G52A C56U C72G U109G | -5.83
C11U C53U G69U A75U A84G | -1.1
C12A | -0.413
C11U C53U C62U G110A U129A | -4.11
C11U G23A | -5.77
C12A A37C C40U G47A C73A | -4.88
C12A A43U A46U G71U | -3.4
C11U G48U G57U G61C C89U U106A | -3.19
C11U U54G C73U C97U G120C | 0.506
C12A A50U G61C U78C C85U C124U | -6.64
C12A A37G U55G | -0.496
C12A A18U C56U A68C C79U C115U A118C U131C | -6.43
C11U G19A C49U C56U A66U C114U | -2.83
C11U U54G G61U U106A G113C C114A | -6.66
C11U C82U | -1.45

Variant | polymerase ribozyme fitness (log ratio)
C11U G69A A84C C123U | -0.562
C11U G58A U126G | -2.59
C11U G17C C49A G58C | -6.04
C12A A16U C56G C124A | -0.00308
C12A A66C U78A | -2.43
C11U U32C C123G | 1.18
C11U G58A G69U | -0.296
C11U C56A C82U C86G | -1.73
C11U U106A | -0.58
C11U G42U | -2.17
C11U C64A | -4.93
C11U C73G | 0.0999
C11U C73U | -0.94
C11U G47U C62U G71U C82A A95U | -2.79
C11U G17A A46G G57C C72U C115A G120C U134A | -0.588
C11U G69U | 0.459
C12A A43C G61U | -0.92
C11U G25U | -5.82
C11U C101U | -0.727
C11U G71U U132C | -0.794
C11U G17A C64U A83C A84C A119G | -0.999
C12A A29C A84C | -3.21
C11U C85A | -2.42
C11U C82U C104A U112A | 0.128

Variant | polymerase ribozyme fitness (log ratio)
C11U U92C G127A | -3.76
C12A A27U | -3.57
C11U C89U C99U A121U U131A | -1.82
C12A A43C G61U C123G | -0.577
C12A A18G C20U A37U A50C C64U U92A | -4.28
C11U U96A | -1.94
C11U U132A | -0.17
C11U G117C | -2.78
C11U G117A | -2.36
C11U G117U | -2.72
C11U U116C | -1.29
C11U U87G C102U | -1.67
C11U C114A C123U | -2.21
C12A A50U C70A | -3.58
C11U U30A | -4.5
C11U C53U C73U C85A A121G C123G U126G U129C U130A | -3.11
C11U U59G G93C U129C | -1.93
C11U U96A G110U | -2.95
C11U G71U | 0.863
C11U C124U | 1.63
C11U C124G | 1.46
C12A A46U C62U C98G C115G U132G | -6.35
C12A A18C U81G G120A | -5.16
C11U G48C | -1.61

Variant | polymerase ribozyme fitness (log ratio)
C11U G47A G61U U78A | -0.709
C11U C97U G113A | -1.74
C11U C62A | -1.39
C11U U59A C73A A91G A118U | -2.19
C11U C114A | -1.22
C11U G44C C101A | -2.7
C11U U21C C82G | -0.576
C11U G45C G57A G61U U132C | -3.81
C11U C53G | -0.654
C11U C53U | 0.00138
C11U C53A | -0.286
C12A A26C C56U G69A C85A | -7.09
C11U G51A C56G C124A | -0.733
C12A A46C U59A | -0.649
C11U G61U U96A | -1.65
C11U C82G C102A U112A G120C U125G | -5
C12A A26U | -3.83
C12A A37U U78A A83G U106C | -3.17
C12A A16G U81C G120C | 0.152
C11U U125A | -0.822
C11U U125G | -1.31
C12A A37U | -1.73
C12A A37G | -0.967
